# From paper PMC7954794, “Protein context shapes the specificity of SH3 domain-mediated interactions in vivo” (Nature Communications, 2021)
# B1: Abp1-2 (protein, UniProt P15891 2-592, looked up)
# Actin-binding protein: ALEPIDYTTHSREIDAEYLKIVRGSDPDTTWLIISPNAKKEYEPESTGSSFHDFLQLFDETKVQYGLARVSPPGSDVEKIIIIGWCPDSAPLKTRASFAANFAAVANNLFKGYHVQVTARDEDDLDENELLMKISNAAGARYSIQTSSKQQGKASTPPVKKSFTPSKSPAPVSKKEPVKTPSPAPAAKISSRVNDNNDDDDWNEPELKERDFDQAPLKPNQSSYKPIGKIDLQKVIAEEKAKEDPRLVQKPTAAGSKIDPSSDIANLKNESKLKRDSEFNSFLGTTKPPSMTESSLKNDDDKVIKGFRNEKSPAQLWAERKAKQNSGNAETKAEAPKPEVPEDEPEGEPDVKDLKSKFEGLAASEKEEEEMENKFAPPPKKSEPTIISPKPFSKPQEPVKAEEAEQPKTDYKKIGNPLPGMHIEADNEEEPEENDDDWDDDEDEAAQPPLPSRNVASGAPVQKEEPEQEEIAPSLPSRNSIPAPKQEEAPEQAPEEEIEEEAEEAAPQLPSRSSAAPPPPPRRATPEKKPKENPWATAEYDYDAAEDNELTFVENDKIINIEFVDDDWWLGELEKDGSKGLFPSNYVSLGN
# B2: Cyk3 (protein, UniProt Q07533 1-885, looked up)
# Cytokinesis protein 3: MATNLTSLKPPFKVKARYGWSGQTKGDLGFLEGDIMEVTRIAGSWFYGKLLRNKKCSGYFPHNFVILLEERLNSSTENGRQPSKIVESFEKSNKVVIPPVPSRYSDERPRPKKKLSSSMPNSPKKPVDSLTKARKAKSKEMVNEKNIYNTQSSRHHNNSAPNLPLASHSKPQVRNFEESMNNPLPPLPPLPDLDNMRKTDKRAPKKSYSANDLHMARSSREYNYYKDNQKFYDGFIPEKRYSLEEDSISSGLFSNSQYLNDSACSSENSFALMSDFSATSAGSFARHKYAQSFSDSLQRSQNANGCSTKINDSQEFGDSNASSRNGKMGDILRKIIIPKRNTNIYSSSVSSPKSPKAYPKLPDIQNLNLSATPDEARDWIAVKCHLNRARTLTKYDKHPRYMRALEENRDLILHPQDSIYNGLNTNEVKGNTKPGLVDVELAELNIEYIDKMTWKRCIRDGTMTLDSWAQTTFSARYSTVLEKLRGIYIFCTEMFALTDDNGTSDFSAEPQNLEKILYRKHCTPYELTWLFKKLANSLGITCEIVIGFLKTPSAINWEFKYNHCWLRILVNKEWRFIDVILGNVTNPIHEFVNNRKIKKAENSYFLMAPLEMIYTHIPPREFEQHIVPSIDQLSALYLPLVFPSFFKNELKLYKFSTALSFLEDSEIYECSLEIPNDVEVFASVVIPTDNEEASSAYRNMELALTQIKKQKAESGRRIALIKAVLPPNVNKGSLYIHSGVRGTQTSIANIHPLSMMVPLTHKGSNMKYEFVIKIPSESIQKIELYIVEPQSRYLFVGNEYSFEVIQSPSDGIVYSSDEGPNQNRKQPMAIKSPSGRVHELVKSDPHFPYGTWKGSIKIKEPGVWSALVIADSGIGWSVFAEWLCV
# B3: Boi2 (protein, UniProt P39969 1-1040, looked up)
# BEM1-interacting protein 2: MSNDREVPTLSQLNTTVSRDKDVSDTLSPDFDSKGSATGRDGGNFPMYIAINEYFKRMEDELDMKPGDKIKVITDDEEYKDGWYFGRNLRTNEEGLYPVVFTQKITVEKAPTLMRAKSTKRIYSPLTNEDPLLSSTFISENDSNSELPTPQPIETAASISRTANGKIERNLSLKNTMSDIDNALLEFKDDSIGPPDRFINSGRDEEHSITHETILSATDGLDVVESNSKPTTSSSTGFLNGDLENQATLINGIDTTKLNPVEAEFWSPEEITAYFIMEGYDVQSASRFQKHKISGKILLELELVHLKELDINSFGTRFEIFKEIEKIKEAIRTNGRSLNRASKTNNANIYNQLMPPANVDQRASYRGHVRKTSQSLEDLPSQQNFIPTPRNTRNSSASKHRPKSLVFDSQEANANIAPDVQIPQVVEEMAGNENLFVSPRRAPKPPSYPSPAQPPKSPLLNNTRTSPSPAQLYSWQSPTLSFSGPKRTSYIDQYSSSDSNFNSRSALPKNNQGGGKALSPIPSPTRNSVRNEDSEGKLTSSSKRNSVPYYGYAPESSSDRKSSCSSHEEEQFQETMNTFERPTSSIYADGSTIASISNDKLAHEKEGKKKPTRHSSSLSSKSKSDSRRNSSLKRSSSASRTSSFKKSSFMLSPFRQQFTDNAARSSSPEENPITSMPSEKNSSPIVDKKSSKKSRSKRRSVSAKEAEIFTETVKDDKNKRSASEAIKGETLKGKSLRQMTARPVAKKKQTSAFIEGLRSISVKEAMKDADFSGWMSKKGSGAMSTWKTRFFTLHGTRLSYFSSTTDTRERGLIDITAHRVVPAKEDDKLVSLYAASTGKGRYCFKLLPPQPGSKKGLTFTQPRTHYFAVDNKEEMRGWMAALIKTTIDIDTSVPIISSYTTPTVSLSKAQEMLAEAREETKLREQQMLENEEDEDQFLWDQQQLQQQQHDNNQGQADRTISASTQRTSDEDNTISTPNLSSANNTTIGSNGFSSPFLLASGLLSPGVARNSSMRGTEKKGKFSTEEDYFGDNSKHKTDKI
# B4: Fus1 (protein, UniProt P11710 1-512, looked up)
# Nuclear fusion protein FUS1: MVATIMQTTTTVLTTVAAMSTTLASNYISSQASSSTSVTTVTTIATSIRSTPSNLLFSNVAAQPKSSSASTIGLSIGLPIGIFCFGLLILLCYFYLKRNSVSISNPPMSATIPREEEYCRRTNWFSRLFWQSKCEDQNSYSNRDIEKYNDTQWTSGDNMSSKIQYKISKPIIPQHILTPKKTVKNPYAWSGKNISLDPKVNEMEEEKVVDAFLYTKPPNIVHIESSMPSYNDLPSQKTVSSKKTALKTSEKWSYESPLSRWFLRGSTYFKDYGLSKTSLKTPTGAPQLKQMKMLSRISKGYFNESDIMPDERSPILEYNNTPLDANDSVNNLGNTTPDSQITSYRNNNIDLITARPHSVIYGTTAQQTLETNFNDHHDCNKSTEKHELIIPTPSKPLKKRKKRRQSKMYQHLQHLSRSKPLPLTPNSKYNGEASVQLGKTYTVIQDYEPRLTDEIRISLGEKVKILATHTDGWCLVEKCNTQKGSIHVSVDDKRYLNEDRGIVPGDCLQEYD
# System: Abp1 PPIs
# Assay: DHFR-PCA of Abp1 SH3-swapped baits (Fig. 2B-D, S2C, S2F)
# Assay type: cell-based, Saccharomyces cerevisiae
# Conditions: number of interactions of Abp1 carrying the named SH3; sheet FigS2A-B
# Text: Having determined that multiple PPIs require SH3s, we asked whether the latter establish PPI specificity independently from their host proteins by swapping domains (Fig. 2A). Using the second round of genome editing, we individually replaced Abp1 SH3 with the 27 yeast SH3s and 3 human Abp1 orthologs’ SH3s (CTTN, HCLS1, and DBNL, Fig. 2B). The reintroduction of its own SH3 (Abp1SH3 in Abp1) reconstitutes almost perfectly Abp1’s interaction profile (Kendall’s τ = 0.93, Fig. 2B). […] No homologous SH3 domain fully re-establishes the normal Abp1 PPI profile (Fig. 2B and Supplementary Fig. 2C). However, we observe a significant correlation (cophenetic correlation = 0.20, p value = 0.005, Fig. 2C) between the similarity of PPI profiles (Fig. 2B) and the sequence similarity of the SH3s. […] Nonetheless, a subset of SH3-dependent PPIs is only observed with the endogenous domain. For instance, Hua2 and App1, both well-characterized partners of Abp1[14],[18],[19], are only detected when Abp1 contains its own SH3 (WT or swapped via editing). A given SH3 may therefore not be fully replaceable with other paralogous or orthologous domains. This pattern is confirmed by cellular growth phenotypic analyses (Supplementary Fig. 2D, E). PPIs, SH3 sequence similarity, and growth profiles under stress conditions are correlated (Supplementary Fig. 2D, E). This relationship is particularly clear when analyzing growth on media supplemented with hygromycin.
# The stuffing of YSC84 SH3 rendered the strain sterile and was therefore not used for this study as the assays require crosses. For genes containing two SH3s (BZZ1 and BEM1), a combination of this first stuffer with a second one ([…]) coding for a highly similar linker ([…]) was used, which allowed targeting each SH3 position independently. The two N-terminal domains of SLA1, which are separated by six nucleotides, were stuffed by a single stuffer. Cells containing pCAS were selected via the G418 resistance cassette from the plasmid on YPD plates (YPD + NAT 100 μg/ml (DHFR F[1,2] selection) + G418 200 µg/mL (Bioshop Canada)). Colonies were randomly selected and grown in YPD media without G418 to allow plasmid loss. The correct insertion of the stuffer was validated by PCR and Sanger sequencing. The SH3-swapped, -shuffled, and -mutated strains were constructed following a second CRISPR–Cas9 editing step with the same procedures. The stuffer sequences were targeted by specific gRNAs (one gRNA per stuffer) and replaced by PCR amplified specific SH3 (with 40 bp homology arms) or libraries of mutated SH3 domains for Deep Mutational Scanning (DMS) with 78 bp flanking homology regions. Validation of the SH3 domain insertions was done as we previously described except for DMS libraries (see below).
# The overall DHFR-PCA pipeline is based on Tarassov et al.[43] and the procedures have also been published as a visualized protocol. The screens were performed with robotically manipulated pin tools (BM5-SC1, S&P Robotics Inc.). First, the preys were cherry-picked from 96-well plates to omnitrays in a 384 format on YPD + HPH solid media. Plates were then combined into the 1536 format on YPD + HPH. The array was constituted of 575 preys previously shown to interact physically with at least one SH3-containing protein as reported in BioGRID V3.4.16 along with 40 negative controls. The prey array comprised a border of control strains of two rows and two columns corresponding to the PPI between LSM8-DHFR F[1,2] and CDC39-DHFR F[3]. This double border was used to remove border effects. Preys are present in duplicate at a randomized position in the 1536 array (except for YAL041W which is present four times per array). Baits were crossed with two prey plates, resulting in four independent bait–prey tests for each PPI. Baits were grown in liquid YPD + NAT and then transferred on solid YPD + NAT omnitrays. They were then replicated on YPD + NAT omnitrays in 1536 array format. […]
row,Molecule,Interactions in Abp1
1,B1,86
2,B2,25
3,B3,62
4,B4,50

# System: Abp1 (1xFLAG)
# Assay: Western blot expression level of Abp1 SH3-swapped baits (Fig. S2A-B)
# Assay type: cell-based, Saccharomyces cerevisiae
# Set-up: Flag (2 bands): unit not given here
# Conditions: Flag signal relative to Abp1 WT (Abp1-1 to Abp1-4 = 1); sheet FigS2A-B
# Experimental: Precultures of yeast cells expressing baits fused with the DHFR F[1,2]-FLAG were grown overnight at 30 °C with agitation in synthetic complete medium. The next day, cells were expanded in synthetic complete medium to reach their exponential phase (OD600 of around 1.0), pelleted, and frozen at −80 °C. The equivalent of fifty OD600 of cells was resuspended in ice-cold yeast lysis buffer (10 mM Tris-HCl pH 7.4, 150 mM NaCl, 0.5 mM EDTA (Millipore Sigma), 1% Triton X-100 (Millipore Sigma), and one cOmplete Mini Protease Inhibitor Cocktail (Millipore Sigma) per 10 mL) with […] glass beads (Millipore Sigma) and disrupted at 4 °C by 10 cycles of 2 min vortexing and 2 min cooldown. The equivalent of […] of lysed cells was used for the immunoprecipitation of the bait proteins using FLAG-M2 agarose beads (Millipore Sigma). The beads were incubated with the cell lysates for 120 min at 4 °C with a slow rotation, followed by three washes with the yeast lysis buffer.
# Protein extracts and affinity-purified baits from yeast and human lysed cells were migrated on 10% polyacrylamide gels. The separated proteins were then transferred to nitrocellulose membranes. Validation of correct protein loading was done with ponceau staining of the membranes. Before the primary antibody incubations, membranes were blocked in 5% milk. Protein signals were detected on an Amersham Imager 600RGB (GE Healthcare) following the incubation of the membranes with the appropriate HRP-conjugated secondary antibodies and the Clarity Western ECL Substrate (Bio-Rad). The antibodies used in this study are M2-HRP (A8592, Sigma, 1/50,000), rabbit anti-FLAG (F7425, Sigma, 1/1000), PAK (SC-881, Santa Cruz, 1/200), p130cas/BCAR1 (SC-860, Santa Cruz, 1/200), actin (Cell Signaling Technology, 1/2000), anti-mouse HRP (Cell Signaling Technology, 1/10,000) and anti-rabbit HRP (Cell Signaling Technology, 1/10,000). The quantification of the WB signals was performed with the Amersham Imager 600 analysis software (GE Healthcare).
row,Molecule,Ratio Swap/WT Flag
1,B1,1
2,B2,0.2689
3,B3,0.9819
4,B4,0.8195

# Same assay, conditions: Western blot Flag signal (2 bands), Abp1 WT, SH3-deleted or SH3-swapped; sheet FigS2A-B
row,Molecule,Flag (2 bands)
1,B1,221127
2,B2,59466
3,B3,95048
4,B4,181205
